Target: Andes virus Gc, wild type (Andes virus strain CHI-7913)
Assay: sucrose gradient sedimentation

Andes virus Gc, wild type (natural protein)
stoichiometry N: 3
